From IntAct's records for PubMed 10069336

What was measured:
ena_drome ena = ena_drome ena (UniProt Q8T4F7)
abl_drome Abl = abl_drome Abl (UniProt P00522)
Sequence of UniProt P00522 (P00522 whole entry): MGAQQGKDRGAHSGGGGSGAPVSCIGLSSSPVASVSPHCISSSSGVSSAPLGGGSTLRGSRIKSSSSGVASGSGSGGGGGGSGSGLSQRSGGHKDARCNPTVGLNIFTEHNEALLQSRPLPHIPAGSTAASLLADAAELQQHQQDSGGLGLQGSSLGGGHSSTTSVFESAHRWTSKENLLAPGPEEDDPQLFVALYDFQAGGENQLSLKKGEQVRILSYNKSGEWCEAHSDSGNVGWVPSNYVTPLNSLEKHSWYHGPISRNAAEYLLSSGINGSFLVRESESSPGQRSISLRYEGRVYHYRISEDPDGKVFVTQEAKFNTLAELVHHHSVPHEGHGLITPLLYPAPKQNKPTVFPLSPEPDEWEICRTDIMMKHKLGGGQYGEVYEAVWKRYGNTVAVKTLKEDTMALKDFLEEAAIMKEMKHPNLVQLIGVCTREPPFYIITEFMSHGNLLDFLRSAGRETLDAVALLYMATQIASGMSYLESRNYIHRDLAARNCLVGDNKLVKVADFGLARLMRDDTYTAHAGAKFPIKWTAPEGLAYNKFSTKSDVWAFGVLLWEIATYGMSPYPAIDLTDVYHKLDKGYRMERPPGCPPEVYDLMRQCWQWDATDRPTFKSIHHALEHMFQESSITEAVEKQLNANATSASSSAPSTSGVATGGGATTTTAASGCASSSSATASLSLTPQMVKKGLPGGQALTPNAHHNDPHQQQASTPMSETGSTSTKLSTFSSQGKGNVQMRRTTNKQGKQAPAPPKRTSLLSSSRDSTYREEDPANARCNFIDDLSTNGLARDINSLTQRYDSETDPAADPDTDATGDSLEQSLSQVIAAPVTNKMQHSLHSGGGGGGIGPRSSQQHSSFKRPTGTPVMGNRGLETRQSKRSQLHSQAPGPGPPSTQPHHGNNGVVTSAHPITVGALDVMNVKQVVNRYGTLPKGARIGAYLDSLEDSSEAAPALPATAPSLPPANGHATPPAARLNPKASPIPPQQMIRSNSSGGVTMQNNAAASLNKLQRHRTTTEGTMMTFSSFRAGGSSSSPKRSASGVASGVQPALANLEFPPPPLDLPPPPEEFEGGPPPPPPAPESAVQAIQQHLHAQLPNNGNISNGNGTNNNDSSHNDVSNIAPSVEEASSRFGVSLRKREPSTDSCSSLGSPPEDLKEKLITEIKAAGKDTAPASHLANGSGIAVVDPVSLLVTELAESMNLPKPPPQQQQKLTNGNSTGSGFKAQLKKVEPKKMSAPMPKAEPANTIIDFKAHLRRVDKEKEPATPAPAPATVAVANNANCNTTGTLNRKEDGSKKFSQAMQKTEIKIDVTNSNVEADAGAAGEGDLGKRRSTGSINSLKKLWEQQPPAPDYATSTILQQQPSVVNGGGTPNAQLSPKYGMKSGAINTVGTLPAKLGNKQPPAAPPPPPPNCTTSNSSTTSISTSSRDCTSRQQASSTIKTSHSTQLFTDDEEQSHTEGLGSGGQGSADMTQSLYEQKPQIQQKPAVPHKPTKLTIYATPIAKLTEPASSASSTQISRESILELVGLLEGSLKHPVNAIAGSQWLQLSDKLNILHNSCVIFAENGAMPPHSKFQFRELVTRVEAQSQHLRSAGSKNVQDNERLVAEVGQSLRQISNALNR

Sequence of UniProt Q8T4F7 (Q8T4F7 whole entry): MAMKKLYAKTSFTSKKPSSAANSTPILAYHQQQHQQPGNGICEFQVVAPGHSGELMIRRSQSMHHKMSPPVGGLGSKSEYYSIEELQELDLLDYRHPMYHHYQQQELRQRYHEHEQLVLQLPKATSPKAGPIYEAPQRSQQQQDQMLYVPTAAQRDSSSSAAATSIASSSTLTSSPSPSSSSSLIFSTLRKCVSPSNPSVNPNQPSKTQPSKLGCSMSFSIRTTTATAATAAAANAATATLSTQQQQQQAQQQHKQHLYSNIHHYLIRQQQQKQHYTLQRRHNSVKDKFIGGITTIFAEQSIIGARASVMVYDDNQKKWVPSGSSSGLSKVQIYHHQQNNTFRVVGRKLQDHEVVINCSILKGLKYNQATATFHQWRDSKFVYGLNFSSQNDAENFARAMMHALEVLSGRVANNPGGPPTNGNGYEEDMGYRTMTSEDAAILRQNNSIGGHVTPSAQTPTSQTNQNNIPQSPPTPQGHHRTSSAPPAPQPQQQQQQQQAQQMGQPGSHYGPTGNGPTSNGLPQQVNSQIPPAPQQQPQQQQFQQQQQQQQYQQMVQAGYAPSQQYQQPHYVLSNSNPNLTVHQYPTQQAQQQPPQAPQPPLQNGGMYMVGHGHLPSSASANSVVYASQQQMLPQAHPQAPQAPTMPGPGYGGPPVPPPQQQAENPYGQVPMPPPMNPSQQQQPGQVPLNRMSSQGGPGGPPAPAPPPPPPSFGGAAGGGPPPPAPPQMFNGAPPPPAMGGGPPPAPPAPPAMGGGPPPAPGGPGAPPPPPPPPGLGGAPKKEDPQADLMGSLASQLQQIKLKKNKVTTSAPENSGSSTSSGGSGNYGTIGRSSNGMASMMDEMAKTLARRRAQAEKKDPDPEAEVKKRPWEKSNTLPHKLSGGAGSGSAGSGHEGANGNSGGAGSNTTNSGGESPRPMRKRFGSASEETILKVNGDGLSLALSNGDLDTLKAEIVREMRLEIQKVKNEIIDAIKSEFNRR

effect of a mutation on the interaction (ena_drome ena): decreasing interaction | effect of a mutation on the interaction (abl_drome Abl): decreasing interaction
Substance: Tyrosine-protein phosphatase Lar (Drosophila melanogaster (Fruit fly)), P16621 C1670S
